First the molecules themselves.
B1: TPR t1 (parent)
chain: GACCAAUCUGCCCUCAGAGCUCGAGAACAUCUUCGGAUGCAGAGGAGGCAGGCUUCGGUGGCGCGAUAGCGCCAACGUCCUCAACCUCCAAUGCAUCCCACCACAUGAUGAUGCCUGAAGAGCCUUGGUUUUUUG

This series covers variants of B1. In words: polymerase ribozyme fitness, log enrichment relative to wild type (log ratio); higher = more active; in vitro selection for triplet polymerase activity. In outline:
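To select mutant libraries of each subunit of a heterodimeric triplet polymerase ribozyme, built by PCR and transcribed, each was annealed with a biotinylated primer, partner subunit and triplets, then incubated frozen at −7 °C. Extended constructs were gel-excised, captured on streptavidin beads and amplified by RT-PCR, in one round carried out in triplicate. Illumina sequencing of input and output libraries kept genotypes with ≥10 input reads and ≥1 read per output. Fitness is the base-2 logarithm of genotype enrichment relative to wild-type enrichment, from inverse-variance-weighted replicate averages.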
Regarding C76A A105U C124A, the “polymerase ribozyme fitness (log ratio)” value was -1.25.
To C76G G120U U129A belongs -1.93; to A74C C82A, -0.0256.
Regarding C76G A119U, the “polymerase ribozyme fitness (log ratio)” value is -1.37.
To A74U A119G belongs 0.812.
To C76G A91U U132A belongs -1.52; to C76A G127U, -2.17.
To C76U A121U belongs 2.22; to C76U A121C, 2.01; to C76U U129G, -0.833.
On to C73U U130A U131A, for which the “polymerase ribozyme fitness (log ratio)” value was -0.703.
To G77A C79G A100U G113U C123G belongs -6.77; to C76A C82U A95G C104G G120C, -5.79.
On to A74C C97U G120A G122A, for which the “polymerase ribozyme fitness (log ratio)” value was -1.46.
To A74U C82G C123U U131A U134C belongs 0.478.
To A74G C101A belongs -0.767.
To A74U C88A C104A belongs -2.72; to A74U U129A, -1.52.
In the case of C76A U81A C89U, the “polymerase ribozyme fitness (log ratio)” value is -1.33.
Take A74U G120A C124G: the “polymerase ribozyme fitness (log ratio)” value was 2.
To A74G G120C belongs 0.921; to A74G A100U G128U, -3.08; to A74C C80A C101G C123A, -4.26.
To A74C A100C belongs -1.06.
To C76U A91C belongs -2.38.
Take C76U A91G: the “polymerase ribozyme fitness (log ratio)” value is -2.17.
To A74U C123U belongs 0.766; to A74C A75U G110A, -1.52.
To A75G G93C U116A belongs -4.1; to A74G A119G, 0.969; to A74G A103G G117U U133G, -6.53.
Then A74C C89A A91G C102A U109G, with -5.5.
As for C76A C94U G117C, the “polymerase ribozyme fitness (log ratio)” value is -5.54.
To A74U G93U G120A U125G U129G belongs -2.55.
As for G77A C80U G113A, the “polymerase ribozyme fitness (log ratio)” value was -1.46.
To C76U C94U C104U U131C belongs -0.407; to A74C C94U, -0.6.
Then C73U U109A, with -4.25.
For the variant A74C U96G, the “polymerase ribozyme fitness (log ratio)” value was -1.28.
To C76U A118G belongs -0.0957; to C76G G93A C115G, -4.44; to A74G C79A C82A U112A, -2.42.
With A74U U112A G113C A118C, the “polymerase ribozyme fitness (log ratio)” value was -3.21.
Then C76U U96G U116G, with -3.28; and C76A U78A A91U U112G, with -3.63.
Then G77A C114G U130C, with -2.63; and A74C C102U, with -1.76.
To C76A C85G belongs -1.03; to A75U G117C, -3.99.
Consider A75G C82U A83C G93A A105C, for which the “polymerase ribozyme fitness (log ratio)” value was -3.08.
To C76G C89U belongs -0.321.
In the case of A74C U92C G127A, the “polymerase ribozyme fitness (log ratio)” value is -2.3.
To G77A C80A U92C belongs -5.14; to G77A C115U G128A, -3.21; to C76G G113U, -4.13.
To C73U U125C belongs -2.06; to G77A C102A, -2.07; to A74U G120A, 0.0292.
To A75U C104A A121U C124U belongs 0.403; to A74U G128C, -2.66.
Turning to G77A C97U, the “polymerase ribozyme fitness (log ratio)” value was -0.317.
Regarding C76U U112A, the “polymerase ribozyme fitness (log ratio)” value came out at 0.984.
Then C76G C114U, with -2.74.
To A74U U87G U106G A121U belongs -0.122.
To G77A A91G C114U belongs -2.54; to C76G C88A C101A U130A, -1.71.
Turning to A74U A75U U81A G127U, the “polymerase ribozyme fitness (log ratio)” value was -1.96.
Then G77A C80A G120U, with -2.54; and A74C C89A U96A C115A, with -3.51.
To C76G G120A belongs 0.286; to A75G A83C U130C U132A, 0.388; to A75G U87A, -0.246.
G77A C101A G117A: the “polymerase ribozyme fitness (log ratio)” value is -3.06.
To C76A C102A C123A belongs -3.55.
Then A74G G77U C98U C104A, with -2.74; and C76A C94A C101A, with -2.64.
A74G C102U A119U: the “polymerase ribozyme fitness (log ratio)” value is -0.954.
To A74G C102U belongs -2.11; to C76G U78A, 0.247; to A74U A118U, -0.576.
Regarding C76U U106C G128C, the “polymerase ribozyme fitness (log ratio)” value was -3.51.
To A74U belongs -0.247.
To A74G belongs 0.0609; to A74C, -0.272.
To A75U G113A G127C belongs -2.56; to C76A C79U C82G A100C C101A, -4.79.
As for A74C C124U, the “polymerase ribozyme fitness (log ratio)” value came out at 1.08.
Then C76G U130A, with -0.718.
Then C76G G122A, with -1.36.
To A74C U87G U129C belongs -0.576; to A74G U87A G117C G120A A121U U129A, -6.07.
As to A74C U130A U131A U133A, the “polymerase ribozyme fitness (log ratio)” value was -2.13.
To A75U U81G belongs -3.97; to C76U U78G, -0.0426; to A75G G128A, -1.5.
C76U G107C A121G U126A: the “polymerase ribozyme fitness (log ratio)” value was -4.6.
As to A74G G110A A111G, the “polymerase ribozyme fitness (log ratio)” value stood at 0.0395.
Then A75G U96A U106G, with -3.41; and C76A A90G, with -0.633.
Then A74U C89G U112A, with -2.2; and C76A C98U, with -1.53; and A74U C82U G120A G122U, with -0.0704.
Then A75G A90C C101G, with -4.09.
Consider C76G U109C A119U C123A, for which the “polymerase ribozyme fitness (log ratio)” value is -6.47.
To A74C U126G belongs -2.5; to C76G A118G G122U, -0.593; to A74C G117U, -2.81.
Regarding A74U C115U A118U C124U, the “polymerase ribozyme fitness (log ratio)” value is -0.812.
Take C76U U87A G110A U130G: the “polymerase ribozyme fitness (log ratio)” value was -2.07.
Then A74C A83C, with -0.243; and G77A C88U, with -0.0927; and C76A C79U A90U A119C G120U, with -1.56.
To A75G G117A belongs -1.28; to C76U C102U, -2.21; to A74G A91C C124G, 0.0731.
Take A74U C80G U112A: the “polymerase ribozyme fitness (log ratio)” value is -5.78.
Then A74U C101U, with -0.51; and A75U C99U G120U, with -4.3.
To A75G A121G belongs 1.42.
Take A74C C104A C114A: the “polymerase ribozyme fitness (log ratio)” value is -4.14.
Then C76G C88G, with -1.08.
Regarding A74U C114A U129A, the “polymerase ribozyme fitness (log ratio)” value was -3.53.
To A74U A105C belongs -3.15; to C76A C102A, -3.94; to A75G C102A, -1.52.
Then A74C A95U G113U U125A, with -4.37; and A74G A75U U106G, with -1.96; and A75U C97U, with -0.863.
To A75G C123U U125G U126A belongs 0.149; to A74G A91G G93C G120C, -2.64; to A74U C115G U129A U130A, -2.87.
Take A74U U92A: the “polymerase ribozyme fitness (log ratio)” value is -3.82.
To A74U U92G belongs -3.01.
To G77A C86U U112A belongs 1.14.
Then A74U A84U A91C C102G G113U C115G A118G G128U, with -7.73; and A74U G110A C115U, with -6.32.
Take C76U C88A U133G: the “polymerase ribozyme fitness (log ratio)” value was -0.912.
To A74C C101G U109A belongs -6.47.
To A74C G113U U133A belongs -3.26; to C76G G113A G122C G135U, -2.49.
To A75G C98U belongs -0.624.
On to A74U A83G, for which the “polymerase ribozyme fitness (log ratio)” value was -0.972.
To A74G A83C C114A C123G C124G belongs -0.429.
For the variant A75U G110U A121U, the “polymerase ribozyme fitness (log ratio)” value was -1.08.
To G77A C80U belongs -0.237; to G77A C123G, 1.16.
Then C73U U116A, with -3.52.
For the variant C76A A83C, the “polymerase ribozyme fitness (log ratio)” value is -0.201.
To A75G U96A A105G belongs -6.14.
Then A74C C102G U112C, with -4.5.
For the variant C76A U106A, the “polymerase ribozyme fitness (log ratio)” value is -1.33.
Then C76U C80G U96C G120C, with -4.89; and A74C C82A G113U C124A G128C U131G, with -4.12.
Then A74U C98A C99A, with -6.51; and A74G A95U, with -0.0785; and A75G C79U, with -0.682.
On to C73U U130C, for which the “polymerase ribozyme fitness (log ratio)” value stood at 0.504.
To A74U A84U U129G belongs -1.9.
Regarding C76U U81C A100U G110A, the “polymerase ribozyme fitness (log ratio)” value was -3.78.
Then C76U A83U, with -0.0435.
Then C76A C79G C123G, with 0.511.
For the variant C76U G120C, the “polymerase ribozyme fitness (log ratio)” value was found to be 0.737.
To C76G U106C G128C belongs -3.27; to A75U C79G C88U U130G, -2.82.
Then A75G G120A A121C, with 0.562.
To A74G C86U U109A U126G belongs -5.87; to C76A A118G, -0.854.
